Experimental findings from article PMC7125159, “Pyrazinamide triggers degradation of its target aspartate decarboxylase” (Nature Communications, 2020) are described below.

The data set concerns the molecule itself. As to the kind of experiment: dynamic light scattering; drug-free; 1 mg/mL PanD in 50 mM Tris pH 7.5, 200 mM NaCl, 298 K; octamer.

B1: Wild-type Mtb Aspartate decarboxylase PanD (PanDWT), cleaved active form (enzyme)
chain 1: MLRTMLKSKIHRATVTCADLHYVG
chain 2: SVTIDADLMDAADLLEGEQVTIVDIDNGARLVTYAITGERGSGVIGINGAAAHLVHPGDLVILIAYATMDDARARTYQPRIVFVDAYNKPIDMGHDPAFVPENAGELLDPRLGVG
notes: not shown: His6, N-terminal, kept; copies: 8 + 8
As to B1, the “stoichiometry N” value is 8.

The stoichiometry N is a count of units in the complex or per binding partner.
